Experimental data reported in paper doi:10.1101/323055.

Biological target: TmFtsH_(184,513), double Cys variant of His6-(Δtm)TmFtsH(147–610) (Thermotoga maritima) (UniProt Q9WZ49)

Kd: 0.4 µM
Substance: TmFtsH_(184,513), double Cys variant of His6-(Δtm)TmFtsH(147–610) (from UniProt Q9WZ49 147-610) (enzyme)
